Experimental data taken from patent US20210253725A1 (BIONTECH, published 2021).
Each block holds one binder with its values, some of them ahead of it.

Tests used:
[1] = target: T1, CD27 protein (His-tagged, Sino Biological Inc. 10039-H08B1) (human, UniProt P26842 20-192); assay: ELISA on coated His-tagged CD27
T1 construct: bought; coated onto ELISA plates; also called human CD27; recombinant protein; not shown: His tag
T1 sequence (looked up): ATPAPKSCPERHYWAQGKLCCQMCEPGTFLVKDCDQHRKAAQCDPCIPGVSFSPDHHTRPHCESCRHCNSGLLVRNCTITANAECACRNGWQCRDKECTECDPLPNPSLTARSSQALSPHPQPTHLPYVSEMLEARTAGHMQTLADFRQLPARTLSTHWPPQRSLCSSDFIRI

[2] = target: T2, CD27 expressed on the cell surface (HT1080_CD27 cells) (human, UniProt P26842 20-260); assay: cellular binding assay, HT1080_CD27 cells
T2 construct: whole, on cells; also called K562_CD27
T2 sequence (looked up): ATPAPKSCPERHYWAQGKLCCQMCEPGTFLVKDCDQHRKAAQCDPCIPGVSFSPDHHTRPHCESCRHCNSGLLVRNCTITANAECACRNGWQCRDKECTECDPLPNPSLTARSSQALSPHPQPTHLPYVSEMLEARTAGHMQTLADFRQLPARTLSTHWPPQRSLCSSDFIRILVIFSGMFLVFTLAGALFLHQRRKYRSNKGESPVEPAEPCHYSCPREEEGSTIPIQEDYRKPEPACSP

[3] = target: T2, CD27 expressed on the cell surface …; assay: cell-based or functional assay
[4] = target: T3, CD134 expressed on the cell surface of HT1080_OX40 cells (human, UniProt P43489 29-277); assay: cell-based or functional assay
T3 sequence (looked up): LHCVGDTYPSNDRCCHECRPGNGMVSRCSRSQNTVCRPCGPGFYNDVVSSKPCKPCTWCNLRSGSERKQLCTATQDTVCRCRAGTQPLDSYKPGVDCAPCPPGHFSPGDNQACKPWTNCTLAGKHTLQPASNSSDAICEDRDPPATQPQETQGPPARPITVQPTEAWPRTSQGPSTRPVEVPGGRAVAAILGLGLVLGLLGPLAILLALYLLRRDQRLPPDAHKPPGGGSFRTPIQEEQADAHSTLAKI

[5] = target: T4, CD134 protein (His-tagged, Sino Biological Inc. 10481-H08H) (human, UniProt P43489 29-216); assay: ELISA, coated His-tagged CD134
T4 construct: bought protein coated on ELISA plates; also called OX40; TNFRSF4; not shown: His tag
T4 sequence (looked up): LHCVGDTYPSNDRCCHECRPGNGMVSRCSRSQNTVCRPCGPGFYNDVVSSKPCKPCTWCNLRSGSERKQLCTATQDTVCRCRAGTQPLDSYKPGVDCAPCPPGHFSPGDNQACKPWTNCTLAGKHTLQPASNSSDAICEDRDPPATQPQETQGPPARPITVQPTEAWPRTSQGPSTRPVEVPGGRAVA

[6] = target: T3, CD134 expressed on the cell surface of …; assay: HT1080_OX40 cells, imaging
Further: test concentration or dose not given here.

B1: P018.S.04.A.E04 (antibody, V domains shown)
VH: QSVEESGGRLVTPGTPLTLTCTVSGFSLSTYAMNWIRQAPGKGLEWIGTITTGGSTFFASWAKGRFTISKTSTTVDLKITSPTTEDTATYFCARGGDTGYGFSYFDLWGQGTLVTVSS
VL: AVVLTQTPASVSEPVGGTVTIKCQASENIYSSLAWYQQKPGQPPKLLIYDASTLASGVPSRFKGSGSGTEYTLTISGVQSDDAATYYCQQGYSTSNLVNPFGGGTELVVN
notes: V regions on human Ig constant parts; also called AB27_75
ELISA [abs. corr.] [1]: 3.38 abs. corr.
Cellular binding assay [RFU] [2]: 283 RFU
IL-8, cross-linked by F(ab')2 fragment [abs. corr.] [3]: 1.34 abs. corr.
IL-8 [abs. corr.] [3]: 0.641 abs. corr.

B2: P018.S.04.A.D02 (antibody, V domains shown)
VH: QSLEESGGRLVTPGTPLTLTCTASGFSLSTYAMGWVRQAPGEGLEWIGNINTDSGDTWYARWAKGRFTISTTSSTTVDLKITSPTIEDTATYFCARNPGDDVNLWGQGTLVTVSS
VL: AQVLTQTPSPVSAAVGDTVTINCQASQSVYNNNDLAWFQQKPGQPPKLLIYRTSILASGVPSRFKGSGSGTQFTLTISDLESDDAATYYCQGYYSGVIYVFGGGTEVVVK
notes: V regions on human Ig constant parts; also called AB27_71
ELISA [abs. corr.] [1]: 3.42 abs. corr.
Cellular binding assay [RFU] [2]: 335 RFU
IL-8, cross-linked by F(ab')2 fragment [abs. corr.] [3]: 1.35 abs. corr.
IL-8 [abs. corr.] [3]: 0.294 abs. corr.

B4: P018.S.10.A.H01 (antibody, V domains shown)
VH: QEQLEESGGDLVKPGASLTLTCTASGFSFSSDYDMCWVSQAPGKGLEWIACIIGGSSDSTWYASWAKGRFTISKTSSTTVTLQVTGLTAADTATYFCARNVGFSYYDLWGPGTLVTVSS
VL: AQVLTQTPSPVSAAVGGTVTINCQASQSLYNNKNLAWYQQKPGQPPKLLIYYASTLASGVSSRFKGSGSGTQFTLTISGVQSDDAATYYCQGEFSCSSGDCFAFGGGTEVVVK
notes: V regions on human Ig constant parts; also called AB27_184
ELISA [abs. corr.] [1]: 3.42 abs. corr.
Cellular binding assay [RFU] [2]: 443 RFU
IL-8, cross-linked by F(ab')2 fragment [abs. corr.] [3]: 2.29 abs. corr.
IL-8 [abs. corr.] [3]: 0.412 abs. corr.

B5: P018.S.08.A.D01 (antibody, V domains shown)
VH: QSVEESGGRLVMPGTPLTLTCTVSGFSLSTYVMGWVRQAPGKGLECIGVIYGGGTIWYASWAKGRFTISKTSTTMDLQITSPTTEDTATYFCARDGSSSGDPGFNLWGQGTLVTVSS
VL: DIVMTQTPASVSAAVGGTVTINCQASQSISNWVAWYQQKPGQPPKRLIYKASTLASGVPSRFKGSGSGTEFTLTISDLESADAATYYCQSTGSTAYGRAFGGGTEVVVR
notes: V regions on human Ig constant parts; also called AB27_137
ELISA [abs. corr.] [1]: 3.42 abs. corr.
Cellular binding assay [RFU] [2]: 394 RFU
IL-8, cross-linked by F(ab')2 fragment [abs. corr.] [3]: 1.12 abs. corr.
IL-8 [abs. corr.] [3]: -0.001 abs. corr.

B6: P018.S.03.A.B02 (antibody, V domains shown)
VH: QSLEESGGRLVTPGTPLTLTCTASGFSLSSYDMNWVRQAPGEGLEWIGTITTNSDTYYASWAKGRFTISKTSTTVDLKITSPTTEDTATYFCARGYTTFTLWGQGTLVTVSS
VL: DPVLTQTPSSASEPVGGTVTINCQASQNIYSNLAWYQQKPGQPPKLLIYGASTLESGVPSRFSGSGSGTQFTLTISDLESDDAATYYCQCTDYDSNYVVDFGGGTEVVVK
notes: V regions on human Ig constant parts; also called AB27_42
ELISA [abs. corr.] [1]: 3.41 abs. corr.
Cellular binding assay [RFU] [2]: 308 RFU
IL-8, cross-linked by F(ab')2 fragment [abs. corr.] [3]: 1.49 abs. corr.
IL-8 [abs. corr.] [3]: 0.366 abs. corr.

The next lines start with the values.

ELISA [abs. corr.] [1]: 3.42 abs. corr.
Cellular binding assay [RFU] [2]: 295 RFU
IL-8, cross-linked by F(ab')2 fragment [abs. corr.] [3]: 1.41 abs. corr.
IL-8 [abs. corr.] [3]: 0.203 abs. corr.
B3: P018.S.07.A.B05 (antibody, V domains shown)
VH: QSLEESGGDLVKPGASLTLTCTASEFSFSNNYYICWVRQAPGKGLEWIACIYVHSGTTDYATWAKGRFTISRTSSTTVTLQMTSLTVADTATYFCARGRSGYYADAFDTWGPGTLVTVSS
VL: ALDMTQTPSPVSAAVGGTVTINCQASQSVYNNNNLAWYQQKPGQPPKLLIYLASNLASGVPSRFKGSGSGTQFTLTISEIQSDDAATYYCQGTDSSSGWEHAFGGGTEVVVK
notes: V regions on human Ig constant parts; also called AB27_117

Functional assay Cross-linked by F(ab′)2 fragment IL-8 [4]: 2.34 abs. corr.
Functional assay IL-8 [4]: 0.115 abs. corr.
ELISA [abs. corr.] [5]: 2.69 abs. corr.
Cellular binding assay [RFU] [6]: 498 RFU
B7: P018.S.02.A.F01 (antibody, V domains shown)
VH: QSVEESGGRLVTPGTPLTLTCTVSGFSLSSYAMSWVRQAPGKGLEWIGIISSSGVTYYASWAKGRFTISKTSTTVDLRITGPTTEDTATYFCARDPGYSTGWDYFFRLWGQGTLVTVSS
VL: AIKMTQTPASVSAAVGGTVSINCQASEDIESYLAWYQQKPGQPPKLLIYDASDLPSGVPSRFKGSGSGKQFTLTISGVQSDDAATYYCQHGAYTSSSDFFYAFGGGTEVVVK
notes: V regions on human Ig constant parts; also called AB134_1
